The record followed here is US20160031999A1 (CSL, published 2016).

In test [1] the target is T1, K66R mutant of soluble human IL-11Rα (SEQ ID NO: 96) (human, UniProt Q14626 23-318).
T1 construct: also called K44R
T1 sequence: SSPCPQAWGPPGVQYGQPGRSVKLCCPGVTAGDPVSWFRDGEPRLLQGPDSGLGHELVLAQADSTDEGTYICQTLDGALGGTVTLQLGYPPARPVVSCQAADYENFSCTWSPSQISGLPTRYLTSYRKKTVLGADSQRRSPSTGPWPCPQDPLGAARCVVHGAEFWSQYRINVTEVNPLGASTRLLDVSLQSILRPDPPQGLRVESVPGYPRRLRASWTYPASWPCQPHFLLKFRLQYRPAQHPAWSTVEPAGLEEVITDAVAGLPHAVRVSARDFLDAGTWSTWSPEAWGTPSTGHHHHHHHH
Briefly: Biacore. The protocol: Anti human IgG Fc specific antibody was chemically immobilized on a CM5 chip to ˜9000 RU. Antibodies were captured at about 0.3-1 μg/ml for 120 seconds on 2 spots in each flow cell. Adjacent spots consisting of only anti human IgG were used as a reference. IL-11 receptors were injected over the captured antibodies and reference spots at 40, 10, 5 and 2.5 nM in duplicate. Blank injections of buffer only were also performed in duplicate. Injection was performed for 3 minutes and dissociation monitored for a further 5 minutes.
The K66R mutation led to a decrease in KD of just over twofold when compared to WT D1/2 (SEQ ID NO: 85) for antibodies 8E2 and 8D10, indicating some involvement of this residue in antibody binding.
In general terms: SPR reads the build-up and loss of mass on a sensor chip optically.

For test [2], the target named is T2, polypeptide of SEQ ID NO: 89 (mouse IL-11Rα 24-215 and human IL-11Rα 216-363, 8×HIS tag) (mouse and human (chimera), UniProt P70225 24-363).
T2 chain: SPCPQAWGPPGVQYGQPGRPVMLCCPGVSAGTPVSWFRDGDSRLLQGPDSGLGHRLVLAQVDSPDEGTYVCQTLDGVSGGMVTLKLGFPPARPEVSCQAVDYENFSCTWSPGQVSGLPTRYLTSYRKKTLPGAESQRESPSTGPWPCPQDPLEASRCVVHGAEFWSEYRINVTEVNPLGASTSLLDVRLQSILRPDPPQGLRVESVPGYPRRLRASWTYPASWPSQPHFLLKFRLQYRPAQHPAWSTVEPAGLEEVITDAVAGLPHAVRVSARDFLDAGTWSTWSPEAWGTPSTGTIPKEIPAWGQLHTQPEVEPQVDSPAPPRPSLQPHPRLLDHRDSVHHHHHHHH
Put plainly: Biacore, antibody captured; N/B: no or ablated binding. The protocol:
(§1) Various soluble forms of IL-11R comprising regions of hIL-11R and mIL-11R were produced and comprise sequences as set forth in SEQ ID NOs: 3 and 86-90 and the binding of antibodies 8E2, 8D10 and 8E4 to those polypeptides was determined using Western blotting or Biacore analysis.
(§2) For Biacore analysis, anti-human was IgG immobilized on the sensor surface at ˜10,000-12,000 RU and each antibody was captured at between 0.2 μg/ml and 0.5 μg/ml every cycle for 120 seconds. IL-11 receptors were injected over captured antibodies at varying concentrations, ranging from 1 μM down to 2.5 nM, including injections of buffer blanks. Association was monitored for 3-5 minutes, dissociation was monitored for 3-10 minutes. Approximate affinities were determined by fitting binding curves of each interaction to a 1:1 Kinetic Model.

Test [3] addresses T3, polypeptide of SEQ ID NO: 86 (human IL-11Rα 23-110 and mouse IL-11Rα 111-367, 8×HIS tag) (human and mouse (chimera), UniProt Q64385 23-367 (mouse entry)).
T3 chain: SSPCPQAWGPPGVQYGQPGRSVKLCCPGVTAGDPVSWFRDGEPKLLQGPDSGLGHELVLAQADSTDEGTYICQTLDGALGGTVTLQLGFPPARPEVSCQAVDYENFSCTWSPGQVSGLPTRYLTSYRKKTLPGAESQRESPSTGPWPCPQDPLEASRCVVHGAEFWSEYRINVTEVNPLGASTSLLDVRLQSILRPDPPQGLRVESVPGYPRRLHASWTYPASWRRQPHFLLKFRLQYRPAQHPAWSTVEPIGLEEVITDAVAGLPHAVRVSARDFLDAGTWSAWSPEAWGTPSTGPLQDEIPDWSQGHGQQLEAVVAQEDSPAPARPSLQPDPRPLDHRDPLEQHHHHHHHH
The test is described as above. On the procedure:
as §1, §2

For test [4], the target named is T4, polypeptide of SEQ ID NO: 90 (amino acids 24 to 367 of mouse IL-11Rα, serine at position 206, 8×HIS tag) (mouse, UniProt Q64385 24-367).
T4 construct: also called soluble mIL-11Rα
T4 sequence: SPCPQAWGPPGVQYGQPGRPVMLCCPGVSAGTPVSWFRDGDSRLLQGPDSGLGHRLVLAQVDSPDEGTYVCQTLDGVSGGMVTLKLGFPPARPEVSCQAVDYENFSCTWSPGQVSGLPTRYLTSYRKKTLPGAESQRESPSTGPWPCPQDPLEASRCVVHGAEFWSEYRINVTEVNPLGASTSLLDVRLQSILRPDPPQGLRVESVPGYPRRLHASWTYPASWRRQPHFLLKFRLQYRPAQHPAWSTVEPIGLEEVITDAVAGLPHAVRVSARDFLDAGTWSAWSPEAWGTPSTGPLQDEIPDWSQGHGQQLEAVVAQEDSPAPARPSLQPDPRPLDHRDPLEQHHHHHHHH
The description is as above. The protocol: as §1, §2

B1: antibody 8D10 (antibody, human IgG4 S228P, kappa, V domains shown)
VH: EVQLLESGGGLVQPGGSLRLSCAASGFTFSRYMMGWVRQAPGKGLEWVSSIVPSGGITIYADSVKGRFTISRDNSKNTLYLQMNSLRAEDTAVYYCARDHMGIVATDWGQGTLVTVSS
VL: DIQMTQSPSSLSASVGDRVTITCQASQDITNYLNWYLHKPGKAPKLLIYDASNLQTGVPSRFSGSGSGTDFTFTITSLQPEDFGTYYCQQYDTLHPSFGPGTTVDIKR
With B1, the “fold change in KD compared to WT D1/2 (SEQ ID NO: 85)” value in test [1] was more than 2 fold. Also, the binding result in test [2], in test [3] and in test [4] was “no binding” in each case.
